From article PMC2119167 (The Journal of Experimental Medicine, 1992)

Target: the molecule itself
Test: SEC

B1: platelet membrane GMP-140 (P-selectin) (natural protein)
chain: WTYHYSTKAYSWNISRKYCQNRYTDLVAIQNKNEIDYLNKVLPYYSSYYWIGIRKNNKTWTWVGTKKALTNEAENWADNEPNNKRNNEDCVEIYIKSPSAPGKWNDEHCLKKKHALCYTASCQDMSCSKQGECLETIGNYTCSCYPGFYGPECEYVRECGELELPQHVLMNCSHPLGNFSFNSQCSFHCTDGYQVNGPSKLECLASGIWTNKPPQCLAAQCPPLKIPERGNMTCLHSAKAFQHQSSCSFSCEEGFALVGPEVVQCTASGVWTAPAPVCKAVQCQHLEAPSEGTMDCVHPLTAFAYGSSCKFECQPGYRVRGLDMLRCIDSGHWSAPLPTCEAISCEPLESPVHGSMDCSPSLRAFQYDTNCSFRCAEGFMLRGADIVRCDNLGQWTAPAPVCQALQCQDLPVPNEARVNCSHPFGAFRYQSVCSFTCNEGLLLVGASVLQCLATGNWNSVPPECQAIPCTPLLSPQNGTMTCVQPLGSSSYKSTCQFICDEGYSLSGPERLDCTRSGRWTDSPPMCEAIKCPELFAPEQGSLDCSDTRGEFNVGSTCHFSCDNGFKLEGPNNVECTTSGRWSATPPTCKGIASLPTPGVQCPALTTPGQGTMYCRHHPGTFGFNTTCYFGCNAGFTLIGDSTLSCRPSGQWTAVTPACRAVKCSELHVNKPIAMNCSNLWGNFSYGSICSFHCLEGQLLNGSAQTACQENGHWSTTVPTCQAGPLTIQEALTYFGGAVASTIGLIMGGTLLALLRKRFRQKDDGKCPLNPHSHLGTYGVFTNAAFDPSP
stoichiometry N: 4
